Measurements: patent US20060204507A1 (LUDWIG INSTITUTE FOR CANCER RESEARCH, published 2006)

Biological target: T1, HLA-Cw3 on target cells
T1 construct: also called HLA-Cw*0304
Test: inferred from FW/92 T cell recognition of peptide-pulsed target cells with lactacystin (ELISPOT)

LAMPFATPM [Nonapeptide consisting of amino acids 13-21 of SEQ ID NO: 4]: binds.
